Reference: the RNAGym collection of RNA variant scans (doi:10.1073/pnas.2313332121)
Variants at the floor of the assay were thinned out.

B1: TPR 5TU (parent)
chain: GGAUCUUCUCGAUCUAACAAAAAAGACAAAUCUGCCACAAAGCUUGAGAGCAUCUUCGGAUGCAGAGGCGGCAGCCUUCGGUGGCGCGAUAGCGCCAACGUUCUCAACUAUGACACGCAAAACGCGUGCUCCGUUGAAUGGAGUUUAUCAUG

Variants of: B1
Experiment: polymerase ribozyme fitness, log enrichment relative to wild type (log ratio); higher = more active; in vitro selection for triplet polymerase activity
In short: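 Input and output libraries were sequenced on Illumina after a single in vitro selection round, run in triplicate on PCR-built, transcribed mutant libraries of each subunit of a heterodimeric triplet polymerase ribozyme. Selection annealed libraries to a biotinylated primer, the partner subunit and triplets, incubated them frozen at −7 °C, then gel-excised extended constructs for streptavidin-bead capture and RT-PCR. Genotypes with ≥10 input reads and ≥1 read per output were kept. Fitness is the logarithm, taken in base 2, of genotype enrichment divided by wild-type enrichment, using inverse-variance-weighted replicate averages.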
In the case of GGAUCUUCUCGAUCUAACAAAAAAGACAAAUCUGCCACAAAGCUUGAGAGCAUCUUCGGAUGCAGAGGCGGCAGCCUUCGGUGGUGCGAUAGCGCCAACGUUCUCAACUAUGACACGCAAAACGCGUGCUCCGUUGAAUGGAGAUUAUCAUG [C85U U144A], the “polymerase ribozyme fitness (log ratio)” value is reported as -0.618.
In the case of GGAUCUUCUCGAUCUAACAAAAAAGACAAAUCUGCCACAAAGCUUGAGAGCAUCUUCGGAUGCAGAGGCGGCAGCCUUCGGUGGUGCGAUAGCGCCAACGGUCUCAACUAUGACACGCAAAACGUGUGCUCCGUUGAAUGGAGUUUAUCAUG [C85U U101G C125U], the “polymerase ribozyme fitness (log ratio)” value is reported as -0.351.
For GGAUCUUCUCGAUCUAACAAAAAAGACAAAUCUGCCACAAAGCUUGAGAGCAUCUUCGGAUGCAGAGGCGGCAGCCUUCGGUGGCACGAUAGCGCCAACGUUCGCAACUAUGACACGCAAAACGCGUGCUCCGUUGAAUGGAGUUUAUCAUG [G86A U104G], the “polymerase ribozyme fitness (log ratio)” value was -2.29.
In the case of GGAUCUUCUCGAUCUAACAAAAAAGACAAAUCUGCCACAAAGCUUGAGAGCAUCUUCGGAUGCAGAGGCGGCAGCCUUCGGUGGUGCGAUAGCGCCAACGUUCUCAACUAUGACACGCAAAACGCAUGCUCCGUUGAAUGGGGUUUAUCAUG [C85U G126A A142G], the “polymerase ribozyme fitness (log ratio)” value is reported as -0.307.
For GGAUCUUCUCGAUCUAACAAAAAAGACAAAUCUGCCACAAAGCUUGAGAGCAUCUUCGGAUGCAGAGGCGGCAGCCUUCGGUGGUGCGAUAGCGCCAACGUUCUCAACUAUGACACGCAAAACGCGUGCUCCGUUGAAUGGAGUCUAUCAUG [C85U U145C], the “polymerase ribozyme fitness (log ratio)” value was -0.732.
With GGAUCUUCUCGAUCUAACAAAAAAGACAAAUCUGCCACAAAGCUUGAGAGCAUCUUCGGAUGCAGAGGCGGCAGCCUUCGGUGGUGCGAUAUCGCCAACGUUCUCAACUAUGACACGCAAAACGCGUGCUCCGUUGAAGGGAGUUUAUCAUG [C85U G92U U139G] the “polymerase ribozyme fitness (log ratio)” value was -1.29.
In the case of GGAUCUUCUCGAUCUAACAAAAAAGACAAAUCUGCCACAAAGCUUGAGAGCAUCUUCGGAUGCAGAGGCGGCAGCCUUCGGUGGUGCGAUAGCGCCAACGUUCUCAACUAUGACACGCAAAACGCGUGCUUCGUUGAAUGGAUUUUAUCAUG [C85U C131U G143U], the “polymerase ribozyme fitness (log ratio)” value is reported as -2.54.
In the case of GGAUCUUCUCGAUCUAACAAAAAAGACAAAUCUGCCACAAAGCUUGAGAGCAUCUUCGGAUGCAGAGGCGGCAGCCUUCGGUGGCACGAUAGCGCCAACGUUCUCAACUAUGACACGCAAUACGCGUGCUCCGUUGAAUGGAGUUUAUCAUG [G86A A121U], the “polymerase ribozyme fitness (log ratio)” value is reported as -0.51.
In the case of GGAUCUUCUCGAUCUAACAAAAAAGACAAAUCUGCCACAAAGCUUGAGAGCAUCUUCGGAUGCAGAGGCGGCAGCCUUCGGUGGCACGAGAGCGCCAACGUUCUCAACUAUGACACGCAAAACGCGUGCUCCGUUGAAUGGAGUUUAUCAUG [G86A U90G], the “polymerase ribozyme fitness (log ratio)” value is reported as at most -4.2.
With GGAUCUUCUCGAUCUAACAAAAAAGACAAAUCUGCCACAAAGCUUGAGAGCAUCUUCGGAUGCAGAGGCGGCAGCCUUCGGUGGCACGAUAGCGCCAACGUUCUCAACUAUGACACGCAAAAAGCGUGCUCCGUUGAAUGGAGUUUAGCAUG [G86A C123A U148G] the “polymerase ribozyme fitness (log ratio)” value was -4.02.
In the case of GGAUCUUCUCGAUCUAACAAAAAAGACAAAUCUGCCACAAAGCUUGAGAGCAUCUUCGGAUGCAGAGGCGGCAGCCUUCGGUGGCACGAUAGCGCCAACGGUCUCAACUAUGACACGCAAAACGCGUGCUCCGUUGAAUGGAGUUUAUCAUG [G86A U101G], the “polymerase ribozyme fitness (log ratio)” value is reported as -0.828.
In the case of GGAUCUUCUCGAUCUAACAAAAAAGACAAAUCUGCCACAAAGCUUGAGAGCAUCUUCGGAUGCAGAGGCGGCAGCCUUCGGUGGUGCGAUAGCUCCUACGUUCUCAACUAUGACACGCAAAACGCGUGCUCCGUUGAAUGGAGUUUAUCAUG [C85U G94U A97U], the “polymerase ribozyme fitness (log ratio)” value is reported as -0.116.
For GGAUCUUCUCGAUCUAACAAAAAAGACAAAUCUGCCACAAAGCUUGAGAGCAUCUUCGGAUGCAGAGGCGGCAGCCUUCGGUGGUGCGAUAGCGCCAACGUUCUCAACUAUGACACGCAAAACGCGGGCUCCGUUGAAUGGAGUUUAUCAUG [C85U U127G], the “polymerase ribozyme fitness (log ratio)” value was -3.46.
For GGAUCUUCUCGAUCUAACAAAAAAGACAAAUCUGCCACAAAGCUUGAGAGCAUCUUCGGAUGCAGAGGCGGCAGCCUUCGGUGGCACGAUAGCGCCAACGUUCUCAACUAUGACACGCAAAACGCGUGCUCCGUUGAAUGAAGUUUAUCAUG [G86A G141A], the “polymerase ribozyme fitness (log ratio)” value was -0.545.
In the case of GGAUCUUCUCGAUCUAACAAAAAAGACAAAUCUGCCACAAAGCUUGAGAGCAUCUUCGGAUGCAGAGGCGGCAGCCUUCGGUGGCACGAUAGCGCCAACAUUCUCAACUAUGACACGCAAAACGCGUGCUCCGUUGAAUGGAGUUUAUCAUG [G86A G100A], the “polymerase ribozyme fitness (log ratio)” value is reported as -3.89.
With GGAUCUUCUCGAUCUAACAAAAAAGACAAAUCUGCCACAAAGCUUGAGAGCAUCUUCGGAUGCAGAGGCGGCAGCCUUCGGUGGUGCGAUAGCGCCAACGUUCUCAACUAUGACACGUAAAACGCGUGCUCCGUUGAAUGGAGUUUAUCAUG [C85U C118U] the “polymerase ribozyme fitness (log ratio)” value was -0.662.
With GGAUCUUCUCGAUCUAACAAAAAAGACAAAUCUGCCACAAAGCUUGAGAGCAUCUUCGGAUGCAGAGGCGGCAGCCUUCGGUGGUGCGAUAGCGCCAACGUUCUCAACUAUGACACGCAAAACGCGUGCUCCGCUGAAUGGAGUUUAUCAUG [C85U U134C] the “polymerase ribozyme fitness (log ratio)” value was -1.76.
For GGAUCUUCUCGAUCUAACAAAAAAGACAAAUCUGCCACAAAGCUUGAGAGCAUCUUCGGAUGCAGAGGCGGCAGCCUUCGGUGGUGCGAUAGCACCAACGUUCUCAACUAUGACACGCAACACGCGUGCUCCGUUGAUUGGAGUUUAUCAUG [C85U G94A A121C A138U], the “polymerase ribozyme fitness (log ratio)” value was -4.08.
In the case of GGAUCUUCUCGAUCUAACAAAAAAGACAAAUCUGCCACAAAGCUUGAGAGCAUCUUCGGAUGCAGAGGCGGCAGCCUUCGGUGGCACGAUAGCGCCAACGUUUUCAACUAUGACACGCAAAACGCGUGCUCCGUUGAAUGGAGUUUAUCAUG [G86A C103U], the “polymerase ribozyme fitness (log ratio)” value is reported as -1.01.
